Test results: patent US20240083986A1 (published 2024)

B1: H4H17015P (antibody, human IgG4, V domains shown)
VH: QVQLQESGPGLVKPSQTLSLTCTVSGGSISSADHYWSWIRQQPGKGLEWIGYISYRGTTYYNPTLESRVSISVDTFKNQFSLMLHSVTVADTAVYYCAKVLQGLVRFRDYGFDVWGQGTTVTVSS
VL: DIQLTQSPPFLSASVGDRVTITCWASQDISSYLAWYQQNPGKSPKLLIYDAFTLHTGVPSRFSGSGSGTEFTLTISSLQPEDFATFYCQHLYSFPFTFGPGTKVDIK
notes: Fully human antibody with human IgG4 Fc (H4H prefix)
B2: H4H17028P (antibody, human IgG4, V domains shown)
VH: QVQLVESGGGVVQPGRSLRLSCAASGFTFSRYAIHWVRQAPGKGLEWVAVISYDGDDKYYGDSVKGRFTISRDNSKTMVYLHMNSLRTEDTAVYYCAKDGYSLYGKDYFDYWGQGTLVTVSS
VL: EIVLTQSPGTLPLSPGERATLSCRASQSITNSYLAWYQQKPDQAPRLLIYGASSRATGIPDRFSGSESGTDFTLTISRLEPEDFAVYYCQQYVRSPWTFGQGTKVEIK
notes: as for B1
B3: H4H17027P (antibody, human IgG4, V domains shown)
VH: EVQLVESGGGLVQPGGSLRLSCAASGFTFRNYAMHWVRQAPGEGLEWVAAIYRNSDSIDYADSVKGRFTISRDNAKNSLYLQMNSLKTEDTALYYCAKDEGFLEYFDSWGQGTLVTVSS
VL: EIVLTQSPGTLSLSPGERASLSCRASQSVSSSFLAWYQQKPGQAPRLLIYGVSSRFIGIPDRFSGGGSGTDFTLTITRLEPEDFAVYYCQQYGRSPWTFGQGTKVEIK
notes: as for B1
B4: H4H17031P (antibody, human IgG4, V domains shown)
VH: QVQLQQWGAGLLKPSETLSLTCVVYGESFGNYHWNWIRQSPGKRLEWIGEINQNGHTNYNPSLKSRVTISVDTSKIQFSLRLNSVTAADTAVYFCARGHNYVNSYFGLDVWGQGTTVTVSS
VL: EIVMTQSPATLSVSPGERATLSCRTSQSVSISLAWYQRKPGQAPRLLIFGSSTRATGVPARFSGSGSGTEFTLTISSLQSEDFAVYYCQQYNNWPYTFGQGTKLEIK
notes: as for B1

Target: T1, CHO produced recombinant Bet v 1 containing a S85A mutation with a C-terminal myc-myc hexahistidine tag … (Betula verrucosa (birch))
T1 chain: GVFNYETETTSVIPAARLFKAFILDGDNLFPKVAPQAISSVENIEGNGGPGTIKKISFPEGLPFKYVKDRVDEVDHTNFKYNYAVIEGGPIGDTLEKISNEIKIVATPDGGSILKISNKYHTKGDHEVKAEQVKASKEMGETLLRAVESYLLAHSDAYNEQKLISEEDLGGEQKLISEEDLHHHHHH
Experiment: SPR, mAb captured via anti-hFc, 25 C

| Binder | 100 nM natural Bet v 1- MMH Bound (RU) | Kd [nM] | koff [s⁻¹] | kon [M⁻¹ s⁻¹] | t½ [min] |
| --- | --- | --- | --- | --- | --- |
| B1 | 76 | 1.03 | 0.000281 | 272000 | 41 |
| B2 | 71 | 0.854 | 0.000693 | 811000 | 17 |
| B3 | 63 | 2.9 | 0.000319 | 110000 | 36 |
| B4 | 63 | 5.61 | 0.00105 | 187000 | 11 |

Target: T1, CHO produced recombinant Bet v 1 …
Experiment: SPR, mAb captured via anti-hFc, 37 C

| Binder | 100 nM natural Bet v 1-MHH Bound (RU) | Kd [nM] | koff [s⁻¹] | kon [M⁻¹ s⁻¹] | t½ [min] |
| --- | --- | --- | --- | --- | --- |
| B1 | 89 | 2.02 | 0.000899 | 445000 | 13 |
| B2 | 77 | 2.32 | 0.00235 | 1.01e+06 | 4.9 |
| B3 | 78 | 6.8 | 0.00116 | 171000 | 9.9 |
| B4 | 71 | 14.6 | 0.00406 | 278000 | 2.8 |

The binders below were run against T2, Alder (Aln g 1, MyBiosource, Cat #MBS1041484) (Alder, UniProt P38948 2-160, limits assumed) (assay: SPR, mAb captured via anti-hFc, 25 C).
T2 construct: Bought reagent
T2 sequence (looked up): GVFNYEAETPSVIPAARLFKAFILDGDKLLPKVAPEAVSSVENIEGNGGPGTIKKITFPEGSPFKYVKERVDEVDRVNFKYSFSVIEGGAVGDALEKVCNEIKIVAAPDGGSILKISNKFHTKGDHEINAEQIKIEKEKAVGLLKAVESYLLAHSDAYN

| Binder | 100 nM Analyte Bound (RU) | binding result | Kd [nM] | koff [s⁻¹] | kon [M⁻¹ s⁻¹] | t½ [min] |
| --- | --- | --- | --- | --- | --- | --- |
| B1 | 8 | no binding (tested: 100 nM) |  |  |  |  |
| B2 | 16 |  | 36.7 | 0.0019 | 51700 | 6.1 |
| B3 | 9 |  | 69.2 | 0.00643 | 92900 | 1.8 |
| B4 | 59 |  | 45 | 0.00238 | 52900 | 4.8 |

Each binder was assayed against T3, Apple (Mal d 1, MyBiosource, Cat #MBS1224919) (Apple, UniProt P43211 2-159, limits assumed) (assay: SPR, mAb captured via anti-hFc, 25 C;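 further: biacore 4000 SPR, related allergen binding to purified anti-Bet v 1 mAbs, HBS-ET running buffer pH 7.4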).
T3 construct: Bought reagent
T3 sequence (looked up): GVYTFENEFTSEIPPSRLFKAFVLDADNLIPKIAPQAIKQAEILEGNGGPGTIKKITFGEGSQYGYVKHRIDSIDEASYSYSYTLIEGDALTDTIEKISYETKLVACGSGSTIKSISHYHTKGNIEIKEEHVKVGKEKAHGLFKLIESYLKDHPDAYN

| Binder | 100 nM Analyte Bound (RU) | binding result |
| --- | --- | --- |
| B1 | 0 | no binding (tested: 100 nM) |
| B2 | 1 | no binding (tested: 100 nM) |
| B3 | 0 | no binding (tested: 100 nM) |
| B4 | 0 | no binding (tested: 100 nM) |

Each binder was assayed against T4, Celery (Api g 1, MyBiosource, Cat #MBS1171376) (Celery, UniProt P49372 1-154, limits assumed) (assay: SPR, mAb captured via anti-hFc, 25 C;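 further: Anti-Bet v 1 monoclonal antibodies probed on a Biacore 4000 in HBS-ET buffer at pH 7.4, rate constants fitted to a 1:1 model with mass transport limitation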).
T4 construct: Bought reagent
T4 sequence (looked up): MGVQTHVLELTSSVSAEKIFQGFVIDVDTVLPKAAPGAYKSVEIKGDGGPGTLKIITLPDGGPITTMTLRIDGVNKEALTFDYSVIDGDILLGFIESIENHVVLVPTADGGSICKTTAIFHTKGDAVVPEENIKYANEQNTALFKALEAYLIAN

| Binder | 100 nM Analyte Bound (RU) | binding result |
| --- | --- | --- |
| B1 | 0 | no binding (tested: 100 nM) |
| B2 | 1 | no binding (tested: 100 nM) |
| B3 | 0 | no binding (tested: 100 nM) |
| B4 | 0 | no binding (tested: 100 nM) |

The binders below were run against T5, European Hornbeam (Car b 1 isoform 1A & 1B, MyBiosource, Cat #MBS1200018) (European Hornbeam, UniProt P38949 2-160) (assay: SPR, mAb captured via anti-hFc, 25 C).
T5 construct: Bought reagent
T5 sequence (looked up): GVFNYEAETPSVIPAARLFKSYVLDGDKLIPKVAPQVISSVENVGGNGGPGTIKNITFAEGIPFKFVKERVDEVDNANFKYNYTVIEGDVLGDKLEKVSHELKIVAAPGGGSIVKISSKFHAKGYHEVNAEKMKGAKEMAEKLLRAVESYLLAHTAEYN

| Binder | 100 nM Analyte Bound (RU) | binding result | Kd [nM] | koff [s⁻¹] | kon [M⁻¹ s⁻¹] | t½ [min] |
| --- | --- | --- | --- | --- | --- | --- |
| B1 | 0 | no binding (tested: 100 nM) |  |  |  |  |
| B2 | 159 |  | 2.43 | 0.000511 | 210000 | 23 |
| B3 | 41 |  | 214 | 0.00673 | 31400 | 1.7 |
| B4 | 126 |  | 13.8 | 0.00111 | 80400 | 10 |

The binders below were run against T6, European Hornbeam (Car b 1 isoform 2, MyBiosource, Cat #MBS1043940) (European Hornbeam, UniProt P38950 2-160, limits assumed) (assay: SPR, mAb captured via anti-hFc, 25 C;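 further: related allergen binding to captured purified monoclonal antibodies, rate constants fitted to a one-to-one model with mass transport limitation, KD and t½ calculated from the rates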).
T6 construct: Bought reagent
T6 sequence (looked up): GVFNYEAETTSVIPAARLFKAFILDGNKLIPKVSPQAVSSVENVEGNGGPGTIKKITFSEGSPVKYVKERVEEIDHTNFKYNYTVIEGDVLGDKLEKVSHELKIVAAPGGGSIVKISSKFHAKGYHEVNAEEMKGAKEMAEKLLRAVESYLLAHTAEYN

| Binder | 100 nM Analyte Bound (RU) | binding result | Kd [nM] | koff [s⁻¹] | kon [M⁻¹ s⁻¹] | t½ [min] |
| --- | --- | --- | --- | --- | --- | --- |
| B1 | 2 | no binding (tested: 100 nM) |  |  |  |  |
| B2 | 95 |  | 45 | 0.00437 | 97100 | 2.6 |
| B3 | 42 |  | 98.9 | 0.00577 | 58400 | 2 |
| B4 | 160 |  | 13.1 | 0.00517 | 395000 | 2.2 |
